Three molecules from patent US20170211072A1 (COLD SPRING HARBOR LABORATORY, published 2017) can be followed below.

Assay [1] deals with T1, p53Ψ (Homo sapiens (Human), UniProt P04637 1-225).
T1 construct: Whole p53Ψ isoform expressed ectopically in A549 cells; It was tested in submitochondrial fractions by co-immunoprecipitation; also called p53-psi; p53Ψ isoform
Nature of the assay: co-immunoprecipitation from submitochondrial fractions with an anti-p53 N-terminal antibody, immunoblot. (A western blot detects proteins with antibodies after separation by electrophoresis.)

The target of assay [2] is T1, p53Ψ. Nature of the assay: co-immunoprecipitation from submitochondrial fractions, immunoblot.
A further assay addresses T2, empty GST proteins (UniProt P08515 1-218 = GST).
T2 construct: Negative control of the pull-down
The assay can be described thus: GST pull-down with purified proteins.

T2 sequence (P08515 whole entry): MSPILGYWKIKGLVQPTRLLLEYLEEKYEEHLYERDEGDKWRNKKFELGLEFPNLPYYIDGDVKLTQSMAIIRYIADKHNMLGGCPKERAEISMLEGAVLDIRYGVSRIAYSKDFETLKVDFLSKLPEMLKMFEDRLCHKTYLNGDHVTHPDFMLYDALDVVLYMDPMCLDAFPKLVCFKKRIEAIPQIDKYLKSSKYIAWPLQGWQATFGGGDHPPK

B1: MnSOD (enzyme, UniProt P04179 25-222, looked up)
chain: KHSLPDLPYDYGALEPHINAQIMQLHHSKHHAAYVNNLNVTEEKYQEALAKGDVTAQIALQPALKFNGGGHINHSIFWTNLSPNGGGEPKGELLEAIKRDFGSFDKFKEKLTAASVGVQGSGWGWLGFNKERGHLQIAACPNQDPLQGTTGLIPLLGIDVWEHAYYLQYKNVRPDYLKAIWNVINWENVTERYMACKK
notes: Endogenous protein of A549 cells, a human cell line; also called SOD2
In the case of B1, in the assay with p53Ψ [1], the binding result is recorded as “no binding”.

B2: BAK (other, UniProt Q16611 2-211, looked up)
chain: ASGQGPGPPRQECGEPALPSASEEQVAQDTEEVFRSYVFYRHQQEQEAEGVAAPADPEMVTLPLQPSSTMGQVGRQLAIIGDDINRRYDSEFQTMLQHLQPTAENAYEYFTKIATSLFESGINWGRVVALLGFGYRLALHVYQHGLTGFLGQVTRFVVDFMLHHCIARWIAQRGGWVAALNLGNGPILNVLVVLGVVLLGQFVVRRFFKS
As to B2, the binding result with p53Ψ [2] is recorded as “no binding”.

B3: purified p53Ψ (aa 102-243) (other)
chain: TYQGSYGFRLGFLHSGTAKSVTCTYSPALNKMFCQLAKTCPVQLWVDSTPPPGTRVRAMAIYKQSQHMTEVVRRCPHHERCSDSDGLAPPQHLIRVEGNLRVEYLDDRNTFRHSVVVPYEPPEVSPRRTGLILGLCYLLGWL
notes: Purified recombinant fragment used in the GST pull-down; also called recombinant p53Ψ
Regarding B3, the binding result in the assay with empty GST proteins is “no binding”.
